Results published in paper PMC5606850, “Acidic C-terminal domains autoregulate the RNA chaperone Hfq” (eLife, 2017).
*: point of attachment. FITC = O=C1OC2(c3ccc(O)cc3Oc3cc(O)ccc32)c2ccc(NC(=S)*)cc21; Ahx = NCCCCCC(=O)O

Key:
[1] = protein stability of Hfq65-K3 mutants; type: physicochemical, E. coli
[2] = biological target: T1, E. coli Hfq65 (Hfq core; truncated variant lacking the CTD) (E. coli, UniProt P0A6X3 1-65); test: fluorescence polarisation; 45 nM FITC-labelled peptide titrated with Hfq65 or variant (0–100 µM Hfq monomer), 50 mM Tris·HCl pH 7.5 (low salt), 30 °C, duplicate, single-site isotherm; Kd in Hfq monomer; conditions: both partners purified
T1 construct: Untagged; Forms a homohexameric ring; also called core Hfq; Hfq65 core

E. coli Hfq65-Q35A = biological target: T2, E. coli Hfq65-Q35A (E. coli, UniProt P0A6X3 1-65, Q35A); test: as above; conditions: both partners purified
T2 construct: Hfq, E. coli, core residues 1-65, mutation Q35A; Untagged; made by site-directed mutagenesis of pET21b-Hfq

E. coli Hfq65-K47A = biological target: T3, E. coli Hfq65-K47A (E. coli, UniProt P0A6X3 1-65, K47A); test: as above; conditions: both partners purified
T3 construct: Hfq, E. coli, core residues 1-65, rim mutation K47A; Untagged; made by site-directed mutagenesis of pET21b-Hfq

E. coli Hfq65-R16A = biological target: T4, E. coli Hfq65-R16A (E. coli, UniProt P0A6X3 1-65, R16A); test: as above; conditions: both partners purified
T4 construct: Hfq, E. coli, core residues 1-65, rim mutation R16A; Untagged; made by site-directed mutagenesis of pET21b-Hfq

E. coli Hfq65-R19D = biological target: T5, E. coli Hfq65-R19D (E. coli, UniProt P0A6X3 1-65, R19D); test: as above; conditions: both partners purified
T5 construct: Hfq, E. coli, core residues 1-65, rim mutation R19D; Untagged; made by site-directed mutagenesis of pET21b-Hfq

Hfq102 (wild-type Hfq) [3] = biological target: T6, Hfq102 (wild-type Hfq) (Escherichia coli, UniProt P0A6X3 1-102); test: fluorescence anisotropy; Hill 0.7; asterisked value, footnote not in material (possibly earlier work); Anisotropy: 10 mM Tris-HCl pH 7.5, 50 mM NaCl, 50 mM KCl, 30 C; CTD-FITC competition: 50 mM Tris-HCl pH 7.5, 30 C; pUC19 EMSA: 40 mM Tris-HCl pH 7.5, 0.14 mM EDTA, 35 mM NH4Cl, 3.7% glycerol, 25 C (competition legend 30 C); conditions: protein: recombinant; tags: untagged; chain copies: 6; label: 5' FAM
[4] = biological target: T7, Hfq65 (Hfq core, CTD deleted) (Escherichia coli, UniProt P0A6X3 1-65); test: fluorescence anisotropy; Hill 0.6; asterisked value, footnote not in material (possibly earlier work); Anisotropy: 10 mM Tris-HCl pH 7.5, 50 mM NaCl, 50 mM KCl, 30 C; CTD-FITC competition: 50 mM Tris-HCl pH 7.5, 30 C; pUC19 EMSA: 40 mM Tris-HCl pH 7.5, 0.14 mM EDTA, 35 mM NH4Cl, 3.7% glycerol, 25 C (competition legend 30 C); conditions: protein: recombinant; tags: untagged; chain copies: 6; label: 5' FAM
[5] = biological target: T7, Hfq65 (Hfq core, CTD deleted); test: competition; displaces CTD-FITC peptide; stronger than length trend; Anisotropy: 10 mM Tris-HCl pH 7.5, 50 mM NaCl, 50 mM KCl, 30 C; CTD-FITC competition: 50 mM Tris-HCl pH 7.5, 30 C; pUC19 EMSA: 40 mM Tris-HCl pH 7.5, 0.14 mM EDTA, 35 mM NH4Cl, 3.7% glycerol, 25 C (competition legend 30 C); conditions: protein: recombinant; tags: untagged; chain copies: 6; minRCRB-like hairpin at 5' end
Hfq102 (wild-type Hfq) [6] = biological target: T6, Hfq102 (wild-type Hfq); test: competition; vs pUC19 EMSA; strong; Anisotropy: 10 mM Tris-HCl pH 7.5, 50 mM NaCl, 50 mM KCl, 30 C; CTD-FITC competition: 50 mM Tris-HCl pH 7.5, 30 C; pUC19 EMSA: 40 mM Tris-HCl pH 7.5, 0.14 mM EDTA, 35 mM NH4Cl, 3.7% glycerol, 25 C (competition legend 30 C); conditions: protein: recombinant; tags: untagged; chain copies: 6
Hfq102 (wild-type Hfq) [7] = biological target: T6, Hfq102 (wild-type Hfq); test: fluorescence anisotropy; Hill 1.2; Anisotropy: 10 mM Tris-HCl pH 7.5, 50 mM NaCl, 50 mM KCl, 30 C; CTD-FITC competition: 50 mM Tris-HCl pH 7.5, 30 C; pUC19 EMSA: 40 mM Tris-HCl pH 7.5, 0.14 mM EDTA, 35 mM NH4Cl, 3.7% glycerol, 25 C (competition legend 30 C); conditions: protein: recombinant; tags: untagged; chain copies: 6; label: 5' FAM on strand 1; blunt
Hfq102 (wild-type Hfq) [8] = biological target: T6, Hfq102 (wild-type Hfq); test: competition; vs pUC19 EMSA; good; Anisotropy: 10 mM Tris-HCl pH 7.5, 50 mM NaCl, 50 mM KCl, 30 C; CTD-FITC competition: 50 mM Tris-HCl pH 7.5, 30 C; pUC19 EMSA: 40 mM Tris-HCl pH 7.5, 0.14 mM EDTA, 35 mM NH4Cl, 3.7% glycerol, 25 C (competition legend 30 C); conditions: protein: recombinant; tags: untagged; chain copies: 6
Hfq102·pUC19 complex = test: RNA or DNA competition of Hfq102·pUC19 complexes, EMSA; type: binding, E. coli
Procedure: Figure 5. CTD and RNAs inhibit DNA binding to Hfq by obstructing the basic rim patch. (A, B) Agarose gel electrophoretic mobility shift assays of 0–3.3 μM hexamer Hfq102, Hfq102-R16A, Hfq65 or Hfq65-R16A binding to 6 nM linear pUC19 DNA ([…]) at 25°C, stained with SYBR Gold. Hfq65 forms large aggregates that fail to enter the gel (Figure 5—figure supplement 1). (C, D) Line densitometry of DNA migration in (A, B). Free pUC19 (no Hfq) is shown in light grey. Samples with increasing Hfq concentration are shown in darker shades of grey. (E, F) RNA competition. Complexes of 0.5 μM Hfq102 hexamer and 6 nM linear pUC19 (black) were challenged by 0–2 μM RNA or DNA competitor (darker shades of red). pUC19 control in the absence of Hfq is shown in light grey. […] Digestion of Hfq65 and Hfq65-R16A with Proteinase K liberates DNA from Hfq•DNA aggregates, allowing it to be detected (lanes 9 and 10). […] The small proportion of Hfq65·DNA complexes remaining in the supernatant were only detected in the gel after treatment with salt. […]
Samples (10 µL) containing linear pUC19 (0.145 nmol bp), 0–3.333 µM Hfq hexamer, in 40 mM Tris-HCl pH 7.5, 0.14 mM EDTA, 35 mM NH4Cl, 3.7% (v/v) glycerol, 0.05% (w/v) bromophenol blue were incubated at 25°C for 30 min. […] The fluorescence intensity was measured on a line from the bottom edge of the well through the middle of the lane to visualize the migration of pUC19. […]

Molecule: Hfq65-K3Q
- formation of stable protein [1]: neither Hfq65-K3S nor Hfq65-K3Q formed stable proteins

Molecule: Hfq65-K3S
- formation of stable protein [1]: neither Hfq65-K3S nor Hfq65-K3Q formed stable proteins

B1: BsCTD-FITC (B. subtilis Hfq CTD peptide) (peptide)
peptide: {FITC-Ahx}-QLELE-OH
SMILES: CC(C)C[C@H](NC(=O)[C@H](CCC(=O)O)NC(=O)[C@H](CC(C)C)NC(=O)[C@H](CCC(N)=O)NC(=O)CCCCCNC(=S)Nc1ccc2c(c1)C(=O)OC21c2ccc(O)cc2Oc2cc(O)ccc21)C(=O)N[C@@H](CCC(=O)O)C(=O)O
notes: Hfq, Bacillus subtilis, C-terminal end of the CTD; also called BsCTD-FITC peptide
- Kd [2]: 8.7 µM

B2: CTD-FITC (fluorescently-labeled E. coli Hfq CTD peptide) (peptide)
peptide: {FITC-Ahx}-NNAGGGTSSNYHHGSSAQNTSAQQDSEETE-OH
notes: Hfq, E. coli, C-terminal domain peptide; lacks residues 65-72 of the CTD region; also called CTD-FITC peptide
- binding result (E. coli Hfq65-Q35A): binds
- binding result (E. coli Hfq65-K47A): binds
- binding result (E. coli Hfq65-R16A): binds
- binding result (E. coli Hfq65-R19D): binds

Molecule: CGAAUUUUUUAAGUGC (ssRNA) [D16-FAM]
- Kd (Hfq102 (wild-type Hfq) [3]): 15.5 ± 0.9 nM hexamer
- Kd [4]: 20 ± 1.3 nM hexamer

Molecule: TATCCGTATGACGTTCCGGACTATGCGGCTAAGGGGCAATCTTTAC (structured_DNA) [DNA1]
- binding result [5]: binds

Molecule: GUGGUCAGUCGAGUGGAAAAAAAAAAAAAAAAAA (ssRNA) [Target-A18]
- binding result (Hfq102 (wild-type Hfq) [6]): binds

B3: D16-FAM·R16 (dsRNA)
RNA 1: CGAAUUUUUUAAGUGC
RNA 2: GCACUUAAAAAAUUCG
- Kd (Hfq102 (wild-type Hfq) [7]): 117 ± 12 nM hexamer

Molecule: GUGGUCAGUCGAGUGGUUUUUU (ssRNA) [Target-U6]
- binding result (Hfq102 (wild-type Hfq) [8]): binds

B4: ChiX: Class II sRNA, transcribed in vitro (nucleic acid)
chain: GGGACACCGUCGCUUAAAGUGACGGCAUAAUAAUAAAAAAAUGAAAUUCCUCUUUGACGGGCCAAUAGCGAUAUUGGCCAUUUUUUU
modifications: unmodified RNA
notes: Class II sRNA, transcribed in vitro
- competition against pUC19 DNA for binding to Hfq102 (Hfq102·pUC19 complex): strongest competitors

B5: RyhB: sRNA, transcribed in vitro (nucleic acid)
chain: GGGCGAUCAGGAAGACCCUCGAGGAGAACCUGAAAGCACGACAUUGCUCACAUUGCUUCCAGUAUUACUUAGCCAGCCGGGUGCUGGCUUUUU
modifications: unmodified RNA
notes: sRNA, transcribed in vitro
- competition against pUC19 DNA for binding to Hfq102 (Hfq102·pUC19 complex): strongest competitors
